This note sets out measurements from paper PMC6157868, “Characterization of novel glycosyl hydrolases discovered by cell wall glycan directed monoclonal antibody screening and metagenome analysis of maize aerial root mucilage” (PLoS ONE, 2018).

Series [1] concerns the target T1, α-N-Arabinofuranosidase (FjArf51) (Flavobacterium johnsoniae, UniProt A5FF88).
T1 construct: gene Fjoh_3113; full-length codon-optimised synthetic gene, pET-28a(+), C-terminal 6xHis, E. coli BL21(DE3) pLysS, 75 kDa
T1 sequence (A5FF88 1-661): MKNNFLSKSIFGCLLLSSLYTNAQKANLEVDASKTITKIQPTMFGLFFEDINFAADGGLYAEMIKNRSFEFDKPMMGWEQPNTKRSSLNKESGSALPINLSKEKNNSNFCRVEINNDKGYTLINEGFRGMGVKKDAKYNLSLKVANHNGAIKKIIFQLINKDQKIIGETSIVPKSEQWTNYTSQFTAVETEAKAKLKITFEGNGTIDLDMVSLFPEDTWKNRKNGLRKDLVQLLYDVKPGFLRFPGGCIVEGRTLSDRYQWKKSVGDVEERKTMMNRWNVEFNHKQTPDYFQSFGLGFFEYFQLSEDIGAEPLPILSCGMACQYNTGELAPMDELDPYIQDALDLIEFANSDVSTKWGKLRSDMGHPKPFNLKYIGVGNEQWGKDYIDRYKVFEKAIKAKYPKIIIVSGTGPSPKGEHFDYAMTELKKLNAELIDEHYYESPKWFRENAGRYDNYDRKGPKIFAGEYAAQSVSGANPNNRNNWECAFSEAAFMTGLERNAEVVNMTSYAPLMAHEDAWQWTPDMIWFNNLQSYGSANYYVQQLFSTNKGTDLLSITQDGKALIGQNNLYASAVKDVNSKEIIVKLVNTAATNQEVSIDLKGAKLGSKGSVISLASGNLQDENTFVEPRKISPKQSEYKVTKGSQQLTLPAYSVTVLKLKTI
Briefly: 4-nitrophenol release at […] nm, Michaelis-Menten fit. The class given is biochemical. To be noted: 30 °C, pH 7, 50 mM phosphate.

Substrate in series [2]: O=[N+]([O-])c1ccc(O[C@@H]2OC[C@@H](O[C@@H]3OC[C@@H](O[C@@H]4OC[C@@H](O)[C@H](O)[C@H]4O)[C@H](O)[C@H]3O)[C@H](O)[C@H]2O)cc1
Briefly: purified protein. The class given is biochemical, Flavobacterium johnsoniae. To be noted: 30 °C, pH 6, 50 mM phosphate.

Substrate in series [3]: C[C@@H]1O[C@@H](Oc2ccc([N+](=O)[O-])cc2)[C@@H](O)[C@H](O)[C@@H]1O
Kind of series: purified protein. The following applies: 30 °C, pH 5, 50 mM citrate-phosphate. The class given is biochemical, Spirosoma linguale.

Substrate in series [4]: O=[N+]([O-])c1ccc(O[C@@H]2O[C@H](CO)[C@@H](O)[C@H](O)[C@@H]2O)cc1
Briefly: purified protein. The class given is biochemical, Agrobacterium fabrum. To be noted: 30 °C, pH 7, 50 mM phosphate.

Substrate in series [5]: O=[N+]([O-])c1ccc(O[C@@H]2O[C@H](CO)[C@H](O)[C@H](O)[C@H]2O)cc1
Briefly: purified protein. The class given is biochemical, Agrobacterium fabrum. The following applies: 30 °C, pH 7, 50 mM phosphate.

Substrate in series [6]: O=[N+]([O-])c1ccc(O[C@@H]2OC[C@@H](O[C@@H]3OC[C@@H](O[C@@H]4OC[C@@H](O)[C@H](O)[C@H]4O)[C@H](O)[C@H]3O)[C@H](O)[C@H]2O)cc1
Kind of series: purified protein. To be noted: 30 °C, pH 6, 50 mM phosphate. The class given is biochemical, Spirosoma linguale.

By Km is commonly meant the concentration of substrate that gives half-maximal velocity. The kcat is the maximal rate divided by the concentration of active sites. The term kcat/Km denotes the turnover number divided by the Michaelis constant.

As to `O=[N+]([O-])c1ccc(O[C@@H]2OC[C@H](O)[C@H](O)[C@H]2O)cc1` [4NP-α-Ara], in series [1], the Michaelis constant (Km) amounted to 220 ± 87 µM.

B1: Oligosaccharide reducing end Xylanase (FjXyn8) (Flavobacterium johnsoniae UW101) (protein)
chain: MTVHHNITNGYLSKIHLLLLIFALIVPAFVISQNKKKIDRELKKPQYRNLFKEAGYSQDDIDKKLTKAYYDVFEGPDKVYFEEGDSLGYVSDVKNKDARTEGMSYGMMVAVQFNKKDVFDRLWRWSVKYMQHQDGPREGYFAWSVNPQTKKQNSAGSASDGELYYITSLLFASNKWGNDTGINYYKEARRILDAMWKKDGTGNIYNIINTEHKQISFVPEGGGYNWTDPSYHVPAFYEIWALYAKDGHEQFYKECAEVSRKFLHKACHPVTGLTSDYTEFNGEPHPTPWLPPGFRYDSWRVPMNIAMDYTWYGKDKEWQEDYAKRFQNFLRSKGLETYEDQFNLDGSTPEFILQAGPVKKLRHSIGLVGTAATASLVNKDKASIDFVHAVWNAKLEPYEDGYFDPYYDGLMYLFSLMHLSGNYQIIVPKG
notes: full-length codon-optimised synthetic gene, pET-28a(+), C-terminal 6xHis, E. coli BL21(DE3) pLysS, 50 kDa
As for B1, in “purified protein [2]”, the Km is on record as 0.790 ± 0.222 mM, the kcat was determined as 5.15 s⁻¹ and the kcat/Km turned out to be 6530 M⁻¹ s⁻¹.

B2: α-L-Fucosidase (SlFuc29) (Spirosoma linguale DSM 74) (protein)
chain: MKKQITSILFSLLVSTSALAQQHSEQNHDKYVWPKDELVKKKLANWQDIKFGLLMHWGTYSEWGVVESWSLCPEDEGWCERRGPYAANWFEYKKAYENLQTTFNPTKFNPERWANAAKGAGMKYVVFTTKHHDGFCMFDTKLTDYKITDKKTPFSSNPRSNVTKEILGAFRQQGFMVGTYFSKPDWHTEDYWWTYFPPKDRNVSYDPKKYPDHWKKFSDFTYNQIEELMTGYGNVDILWLDGGWVRPASTIDSTVSWQRTIPYSQDINMARIAGMARQHQPGLLVVDRTVSGEFENYVTPEQSIPDHYMPIPWESCITMGDSWSYIPKENFKPARKLVQTLVDIVAKNGNLLLNIAPGPDGEWHEEAYQRLQEIGKWITVNGESIYGTKPLAPYRQGQWAFTSNNKAVYASYLPSESEQQLPASISLPALTVAPNAKVTVLGASQALKLTKTKDGFSVVVPEKVRQQLAGQPVWVFKIG
notes: full-length codon-optimised synthetic gene, pET-28a(+), C-terminal 6xHis, E. coli BL21(DE3) pLysS, 55 kDa
Turning to B2, in the series “purified protein [3]”, the Km came out at 0.58 ± 0.020 mM, the kcat came to 53.1 s⁻¹ and the specificity constant (kcat/Km) is 91800 M⁻¹ s⁻¹.

B3: β-Mannosidase (AfMan2) (Agrobacterium fabrum str. C58) (protein)
chain: MISSSTPETVIDLAGLWHLASVEGDHATEISIPGDIHSALKNAAIIPDPYHGANEKAVQWVAQQDWIIERTFILDDAEASWYLDIDYLDTVAIVFVNDVPVLSADNCFRRYRPDISRAVRPGENTIRIHFHSNITAGAERQARQPFYIPYHPGNSPIANGNMLRKPQCHFGWDWNIAIAPLGLYGKILLKRLDTARIEHVVSSQHHVEGGVELHVAVTLFAEGPASLPVYLSLGDERLRLECGVGAGETVVRHVFFVENPDLWWPAGSGEQTLYKLTVELPDETVTRQIGFRTIELLTDKDEAGSRFAFRINGREIFCRGANWIPADALYSLTSREKTEDLLCSAVEANMNMIRVWGGGFYEEDWFYDLCDRLGLLVWQDFMFACNLYPCSEDFLDNVEHEVDYQVKRLSSHPSIALWCGDNELVGALTWFDESRNNRDRYLVAYDRLNRTIEKALKKATPEALWWPSSPASGYLDYGDAWHADGSGDMHYWSVWHENKSFDNYHQVKPRFCSEFGFQSYTSMPVIRTYAEDKDMNIASPVIELHQKNVGGNERIAGTMFRYFRFPRDFENFVYLSQVQQALAIRTAVDYWRSLKPHCMGTLYWQLNDTWPVASWSSLDYGGGWKALHYAARRFFQPVAVSAIPSADGRRVTFSMVNDTAEDVEIDMNIVALAMDGNRVPLKSANGTCTSDKAATLTDIDMDSLPDGAILAWNFIASNGMTGEGHHVRDTYKALELQPAGLEFSVGPLKNGQFEIDVTAAGLALFIMLEADQPGRYSDNLFDLAAGETRRIIFTPKGAGPQPHFRIFDLHTCQSSPNPGIETMRRKA
notes: full-length codon-optimised synthetic gene, pET-28a(+), C-terminal 6xHis, E. coli BL21(DE3) pLysS, 93 kDa
As for B3, in “purified protein [4]”, the Km was determined as 0.68 ± 0.219 mM, the kcat amounted to 1350 s⁻¹ and the kcat/Km worked out at 1.98e+06 M⁻¹ s⁻¹. Moreover, in the series “purified protein [5]”, the Michaelis-Menten constant (Km) is listed as 0.25 ± 0.062 mM, the catalytic constant (kcat) was found to be 269 s⁻¹ and the kcat/Km was determined as 1.08e+06 M⁻¹ s⁻¹.

B4: Xylan β-1,4 Xylosidase (SlXyn39) (Spirosoma linguale DSM 74) (protein)
chain: MPLLRRFCLQTGHLSALFFGLVVSVAFGSIDSHAQTSPDKPVAIQVDLTKDKGPLKPIWAWFGYDEPNYTYMKDGRKLLTEISQLSKVPVNVRVHSLLVTGDGTAALKWGSTNAYTEDKAGNPIYNWTIIDKIFDTFIERGMKPIAQIGFMPEALSTKPQPYRHYWKPGDNYNDIYTGWAYPPKDYKKWSELVYQWVKHSVQRYGQKEVESWYWELWNEPNISYWKGTTEEYIKLYDYTADAVKRALPTAKIGGPEVTGPNWDVSEKFFRAFMDHVVKGTNAVTGKVGTPIDFITFHAKGAPKVVNGVVQMNMGTQLRDIDKGFAIVASYPSLKNLPIIIGESDPEGCAACSEDLHPQNAYRNGTMYSSYTAASFARKYDLAEARGVNLAGAVTWGFEFEDQAWFRGFRDLATNGVDKPVLNVFRMFGMMQGNRVAVNTDLAYNAKKIRDESVRGEPDINALATKDAQSASVMVWNYHDDNVQGPGSPVSLKINGLTAKKVWVQHYRIDQQFSNSYEVWKKMGSPKAPTAEQVAELEKAGQLQLLASPTWVTVEKGVLTMPFQLPRQGVSLVKVSW
notes: full-length codon-optimised synthetic gene, pET-28a(+), C-terminal 6xHis, E. coli BL21(DE3) pLysS, 65 kDa
For B4, in the series “purified protein [6]”, the Michaelis-Menten constant (Km) came out at 0.08 ± 0.009 mM, the turnover number (kcat) is 2.17 s⁻¹ and the kcat/Km came out at 26900 M⁻¹ s⁻¹.
